Assay [1] concerns the target T1, Human Siglec 5, Fc chimera (R&D Systems) (human, UniProt O15389 17-434, limits assumed).
T1 construct: Bought or recombinant Fc fusion; also called recombinant Siglec-5-Fc; not shown: Fc part
T1 sequence: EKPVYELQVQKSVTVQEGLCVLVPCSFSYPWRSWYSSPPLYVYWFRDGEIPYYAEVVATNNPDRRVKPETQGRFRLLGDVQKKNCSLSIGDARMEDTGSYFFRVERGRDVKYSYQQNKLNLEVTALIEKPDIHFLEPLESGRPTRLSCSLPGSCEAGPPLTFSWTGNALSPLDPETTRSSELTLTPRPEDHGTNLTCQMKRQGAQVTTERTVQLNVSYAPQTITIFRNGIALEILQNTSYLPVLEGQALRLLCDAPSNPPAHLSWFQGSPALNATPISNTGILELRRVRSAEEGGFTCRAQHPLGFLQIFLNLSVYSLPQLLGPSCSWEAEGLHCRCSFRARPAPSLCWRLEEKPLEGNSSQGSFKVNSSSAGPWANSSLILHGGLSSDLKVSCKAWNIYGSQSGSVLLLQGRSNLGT
The assay can be described thus: RBC adhesion to plate-bound Siglec-5-Fc, 1.0 ug/ml isotype control, percent of binding without antibody.

Assay [2] has as its target human Siglec-5 expressed on human primary cells (human) (UniProt O15389). As to the kind of experiment: flow cytometry, human primary dendritic cells, isotype control. A general note: Flow cytometry measures light scatter and fluorescence of single cells or particles in a stream.
Assay [3] shares this target. The assay can be described thus: flow cytometry, human primary neutrophils, isotype control.
Assay [4] shares this target. As to the kind of experiment: flow cytometry, human primary macrophages, isotype control.
Assay [5] addresses T1, Human Siglec 5, Fc chimera (R&D Systems). The assay can be described thus: RBC adhesion to plate-bound Siglec-5-Fc, 0.3 ug/ml isotype control, percent of binding without antibody.
In assay [6] the target is human Siglec-5 expressed on human primary cells (human) (UniProt O15389). As to the kind of experiment: flow cytometry, human primary monocytes, isotype control.
Assay [7] shares this target. As to the kind of experiment: flow cytometry, human primary macrophages, 10 ug/ml mAb.
For assay [8] the target is unchanged. As to the kind of experiment: flow cytometry, human primary monocytes, 10 ug/ml mAb.
Assay [9] has as its target T1, Human Siglec 5, Fc chimera (R&D Systems). The assay can be described thus: RBC adhesion to plate-bound Siglec-5-Fc, 0.3 ug/ml mAb, percent of binding without antibody.
For assay [10], the target named is human Siglec-5 expressed on human primary cells (human) (UniProt O15389). As to the kind of experiment: flow cytometry, human primary dendritic cells, 10 ug/ml mAb.
Assay [11] has the same target. As to the kind of experiment: flow cytometry, human primary neutrophils, 10 ug/ml mAb.
Assay [12] has the same target. As to the kind of experiment: flow cytometry, human primary monocytes, secondary antibody only (no primary antibody), background control.
For assay [13] the target is unchanged. The assay can be described thus: flow cytometry, human primary macrophages, secondary antibody only (no primary antibody), background control.
Assay [14] shares this target. As to the kind of experiment: flow cytometry, human primary dendritic cells, secondary antibody only (no primary antibody), background control.
The target is the same in assay [15]. As to the kind of experiment: flow cytometry, human primary neutrophils, secondary antibody only (no primary antibody), background control.
Assay [16] has as its target T2, human Siglec-5 expressed on human primary cells (human, UniProt O15389 17-551).
T2 construct: Endogenous receptor on human primary monocytes, dendritic cells, macrophages and neutrophils; also called CD170
T2 sequence: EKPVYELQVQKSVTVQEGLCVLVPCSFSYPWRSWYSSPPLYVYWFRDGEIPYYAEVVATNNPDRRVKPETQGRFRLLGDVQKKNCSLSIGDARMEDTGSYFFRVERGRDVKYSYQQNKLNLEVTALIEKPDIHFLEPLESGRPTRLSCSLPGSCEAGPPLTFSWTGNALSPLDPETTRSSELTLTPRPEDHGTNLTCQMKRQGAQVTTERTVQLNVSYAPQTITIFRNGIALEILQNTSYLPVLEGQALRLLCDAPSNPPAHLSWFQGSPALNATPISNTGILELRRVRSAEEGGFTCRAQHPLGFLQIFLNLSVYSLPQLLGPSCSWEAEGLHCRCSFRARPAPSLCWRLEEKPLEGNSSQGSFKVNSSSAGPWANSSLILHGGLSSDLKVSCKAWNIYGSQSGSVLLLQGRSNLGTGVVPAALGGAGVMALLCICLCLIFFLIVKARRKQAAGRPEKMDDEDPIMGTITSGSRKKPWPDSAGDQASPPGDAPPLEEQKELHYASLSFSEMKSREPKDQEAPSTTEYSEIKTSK
The assay can be described thus: flow cytometry, human primary macrophages, 10 ug/ml mAb.
Description: (§1) Initial characterization of Siglec-5 antibodies involved determining their ability to bind Siglec-5 expressed on human primary monocytes, human primary macrophages, human primary dendritic cells, and human primary neutrophils. Cells were harvested, plated at 10⁶1m1 in a 96 well plate, and incubated in 100 μl PBS containing 2% FBS, 2 mM EDTA and 10 μg/ml Mab and Fc blocking reagent for 1 hour in ice. […] Cells were washed twice in cold PBS and analyze by flow cytometry on a BD FACS Canto. Data analysis and calculation of MFI values was performed with FlowJo (TreeStar) software version 10.0.7.
(§2) Binding is compared to an isotype control.

Assay [17] addresses T1, Human Siglec 5, Fc chimera (R&D Systems). As to the kind of experiment: RBC adhesion to plate-bound Siglec-5-Fc, 1.0 ug/ml mAb, percent of binding without antibody.
Description: Siglec-5 antibodies (0.3 μg/ml or 1.0 μg/ml) were bound for one hour at RT with gentle rocking. After removal of unbound antibody, red blood cells were added to each well at a concentration of 3.0 ×10⁶ cells per ml and incubated at RT for one hour. Unbound RBCs were then carefully washed off 3X with PBS, and water was added to each well for hypotonic lysis of bound RBCs. The plate was transferred to -80° C. for 10 minutes, followed by 37° C. for 15 minutes. Bound RBCs were detected by peroxidase activity, followed by 2N sulfuric acid to stop the reaction.
Assay [18] deals with T2, human Siglec-5 expressed on human …. As to the kind of experiment: flow cytometry, human primary monocytes, 10 ug/ml mAb.
Description: as §1, §2
Assay [19] has the same target. As to the kind of experiment: flow cytometry, human primary dendritic cells, 10 ug/ml mAb.
Description: as §1, §2
For assay [20] the target is unchanged. As to the kind of experiment: flow cytometry, human primary neutrophils, 10 ug/ml mAb.
Description: as §1, §2
In assay [21] the target is T3, Histidine-tagged human Siglec-5 (NovoProtein) (human, UniProt O15389 17-434, limits assumed).
T3 construct: Bought protein; also called Siglec-5-his tagged protein; not shown: histidine tag
T3 sequence: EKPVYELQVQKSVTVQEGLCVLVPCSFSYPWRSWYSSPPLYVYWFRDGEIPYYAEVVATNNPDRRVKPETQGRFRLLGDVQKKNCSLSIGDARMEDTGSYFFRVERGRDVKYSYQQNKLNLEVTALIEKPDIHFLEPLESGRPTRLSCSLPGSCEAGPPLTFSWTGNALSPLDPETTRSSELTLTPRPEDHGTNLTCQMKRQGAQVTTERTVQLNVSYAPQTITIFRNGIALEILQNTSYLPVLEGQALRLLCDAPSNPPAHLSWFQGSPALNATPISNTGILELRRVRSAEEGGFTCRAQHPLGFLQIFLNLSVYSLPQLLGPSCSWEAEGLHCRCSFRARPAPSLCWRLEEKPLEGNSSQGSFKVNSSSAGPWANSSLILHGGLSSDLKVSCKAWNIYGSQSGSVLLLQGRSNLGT
As to the kind of experiment: SPR (BiaCore T200, 25 C), mAb captured on anti-mouse IgG, 15 nM His-tagged Siglec-5, single-concentration 1:1 fit.

For the molecule mouse IgG2a isotype control antibody, the Percent RBC Binding to Siglec-5 in [1] was 94.5%.
As to mouse IgG1 isotype control antibody, the % Positive is 6.7% in assay [2], 1.3% in assay [3], 21.9% in assay [4] and 10.7% in assay [6]. For the same molecule, the MFI in assay [2] was 98; in assay [3], 53.7; in assay [4], 305; in assay [6], 126. The Percent RBC Binding to Siglec-5 in assay [5] amounted to 100%; in assay [1] it was 102%.
Regarding “commercially available anti-Siglec-5 antibody, clone 194128 (R&D Systems)”, the % Positive worked out at 96.9% in assay [7], 98.8% in assay [8], 94.8% in assay [10] and 99.2% in assay [11]. For the same molecule, the MFI in assay [7] was determined as 806; in [8] it was 463; in [10], 641; in assay [11], 383. Moreover, the Percent RBC Binding to Siglec-5 in [9] is 41.5%.
mouse IgG2b isotype control antibody registered a Percent RBC Binding to Siglec-5 in assay [1] of 94.4%.
For the molecule PE-conjugated secondary antibody, the % Positive in [12] is 8.2%; in assay [13] it was 5.4%; in assay [14], 2.1%; in [15], 3.42%. Moreover, the MFI in [12] stood at 104; in assay [13], 221; in assay [14] it was 87; in assay [15] it was 62.1.

B1: anti-Siglec-5 monoclonal antibody 8C3 (antibody, IgG1, V domains shown)
VH: QVQLQQSGGGLVKPGTSVKLSCKASGYIFTEYIIHWVKQRSGQGLEWIGWFYPGIISIKYNEKFKDKATLTADKSSSTVYMELSRLTSEDSAVYFCAGHEGYDGAMDYWGQGTSVTVSS
VL: DVLMTQTPLSLPVSLGDQASISCRCSQSIVHSNGNTYLEWYLQKPGQSPKLLIYRVSNRFSGVPDRFSGSGSGTDFTLKISRVEAEDLGVYYCFQGSHVPWTFGGGTKLEIK
Consider B1, for which the “% Positive” value in assay [16] stood at 92%; in assay [18], 94.8%; in assay [19] it was 94.9%; in assay [20], 96%. Also, the MFI in [16] was 490; in [18], 377; in assay [19], 512; in assay [20], 320. Besides, the “Percent RBC Binding to Siglec-5” value in assay [17] worked out at 5.36%; in [9], 24.2%. For the same molecule, the dissociation constant (Kd) (as a rule, the equilibrium constant for the complex coming apart) in assay [21] is 0.043 nM.

B2: anti-Siglec-5 monoclonal antibody 9A5 (antibody, IgG1, V domains shown)
VH: QVQLQQSGPELVEPGASVKVSCKASGYAFTSYNMYWVKQSHGKSLEWIGYIDPYNGGTYYDQKFKGRATLTVDKSSSTAHMHLNSLTSEDSAVYYCVFFYEYDGFPYWGQGTLVTVSA
VL: DIVLTQSPTLMSASPGEKVTMTCSASSSVSYMYWYQQKPRSSPKPLIYLTSNLASGVPARFSGSGSGTSYSLTISSMEAEDAATYYCQQWSSNPLTFGAGTKLELK
Turning to B2, the “% Positive” value in assay [16] is 87.8%; in assay [18] it was 93.2%; in [19], 93.9%; in assay [20], 98.6%. Also, the MFI in [16] turned out to be 471; in [18], 368; in assay [19], 591; in [20], 332. In addition, the “Percent RBC Binding to Siglec-5” value in [17] came to 5.59%; in assay [9], 47.5%. The Kd in [21] was found to be 0.408 nM.

B3: anti-Siglec-5 monoclonal antibody 2G5 (antibody, IgG1, V domains shown)
VH: EIQLQQSGPELVKPGASVKVSCKASGYSFTDYNMYWVKQSHGKSLEWIGYIDPYNGNTTYNQRFKGKATLTVDKSSSTAFMHLNSLTSEDAAVYYCATFYGFDGFAYWGQGSLVAVSA
VL: QAVVTQESALTTSPGETVTLTCRSSTGAVTTSNYANWVQEKPDHLFTGLIGTTNNRAPGVPARFSGSLIGDKAALTITGAQTEDEAIYFCALWYSNHLVFGGGTKLTVLG
As to B3, the “% Positive” value was found to be 91.8% in [16], 97.3% in [18], 90.7% in assay [19] and 87.4% in [20]. For the same molecule, the MFI in [16] is 569; in [18], 368; in assay [19], 459; in assay [20] it was 207. The “Percent RBC Binding to Siglec-5” value in assay [17] is 6.73%; in assay [9], 31.8%. Moreover, in assay [21], binding was put at a Kd of 0.081 nM.
